Results reported in US6361968 (US Dept. of Health and Human Services, dated 1997).

Experiments:
[1] = biological target: T1, 0heptadMax (dimerization domain of Max without an acidic extension) (UniProt P61244 44-113, limits assumed); assay: heterodimer with c-Myc, dimerization study of FIG. 9
T1 construct: domain: dimerization domain; also called OheptadMax

[2] = biological target: T2, C/EBP bZIP domain (GCN4-C/EBP chimeric protein) (C/EBP: rat liver; GCN4: yeast); assay: thermal melt of the mixture equals the sum of the two homodimer curves (FIG. 5A)
T2 construct: Made in E. coli; forms a homodimer; also called C/EBP-C/EBP; wild type C/EBP
T2 chain: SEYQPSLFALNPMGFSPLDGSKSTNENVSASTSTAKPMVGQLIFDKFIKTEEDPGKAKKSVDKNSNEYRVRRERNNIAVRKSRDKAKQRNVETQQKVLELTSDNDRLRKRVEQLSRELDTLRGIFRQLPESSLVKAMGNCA

c-Jun (unmodified) [3] = biological target: T3, c-Jun (unmodified) (UniProt P05412 241-331, limits assumed); assay: from thermal melts of FIG. 4, Kd at 37 C
c-Jun (unmodified) [4] = biological target: T3, c-Jun (unmodified); assay: thermal melt of the mixture (FIG. 4)
[5] = biological target: the molecule itself; assay: CD thermal melt, homodimer, 150 mM KCl, Kd at 25 C
Procedure: (§1) CD analyses were performed as described in Materials and Methods of D. Krylov et al., 1994, *EMBO J.,* 13:2849–2861. T_m values were calculated as described in D, Krylov et al., 1994, Ibid, converted to K_{d(25)} and $\Delta G(25)$ using a $\Delta C_p$ of –0.96 kcal/mol° C.^-1 calculated from a T_m versus $\Delta H$ plot for all of the proteins as described herein. All thermal melts were reversible.
(§2) Table 1 presents the melting temperature (T_m,° C.), $\Delta G$ and k_d at 25° C. for CD thermal melts of a variety of proteins either as homodimers or an equimolar mixture of two proteins. […] The (L) denotes 'low' salt conditions (50 mM KCl, 25 mM Tris pH 8.0, 0.5 mM EDTA, 1 mM DTT) and the (H) denotes regular salt conditions (12.5 mM potassium phosphate, pH 7.4, 150 mM KCl, 0.25 mM EDTA, and 0.5 mM DTT). The latter conditions were used in Table 2. "0heptad-F" represents the F zipper with the basic region deleted. The RMS error in $\Delta G$ is 0.2 kcal/mol and 0.5 kcal/mol for homo- and heterodimers respectively.

bZIP VBP protein = biological target: T4, bZIP VBP protein (chicken, UniProt Q92172 235-319, limits assumed); assay: thermal melt of the mixture equals the sum of the two homodimer curves (FIG. 5B)
T4 sequence (looked up): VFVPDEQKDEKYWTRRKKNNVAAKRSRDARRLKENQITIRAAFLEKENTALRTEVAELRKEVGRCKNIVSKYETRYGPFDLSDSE

[6] = biological target: the molecule itself; assay: CD thermal melt, homodimer, 150 mM KCl
Procedure: as §1, §2

[7] = biological target: T5, GBF-C/EBP chimeric protein (GBF: Arabidopsis thaliana; C/EBP: rat …); assay: CD thermal melt, equimolar mixture, 150 mM KCl, Kd at 25 C
T5 chain: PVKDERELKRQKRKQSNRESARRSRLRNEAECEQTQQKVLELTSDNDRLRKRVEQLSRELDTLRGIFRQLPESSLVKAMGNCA
Procedure: as §2
(§3) The two chimeras were mixed with the four different length acidic extensions appended to the F zipper and their stability was determined from CD thermal melts.

[8] = biological target: T6, VBP-C/EBP chimeric protein (VBP: chicken; C/EBP: rat liver); assay: as above
T6 chain: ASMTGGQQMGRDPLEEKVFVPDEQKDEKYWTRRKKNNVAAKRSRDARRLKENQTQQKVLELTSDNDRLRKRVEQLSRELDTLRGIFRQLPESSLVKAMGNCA
Procedure: as §2, §3

[9] = biological target: T2, C/EBP bZIP domain (GCN4-C/EBP chimeric …); assay: as above
Procedure: as §2, §3

[10] = biological target: T5, GBF-C/EBP chimeric protein; assay: CD thermal melt, equimolar mixture, 150 mM KCl
Procedure: as §2, §3

[11] = biological target: T6, VBP-C/EBP chimeric protein; assay: CD thermal melt, equimolar mixture, 150 mM KCl
Procedure: as §2, §3

[12] = biological target: T2, C/EBP bZIP domain (GCN4-C/EBP chimeric …); assay: CD thermal melt, equimolar mixture, 150 mM KCl
Procedure: as §2, §3

T3 sequence (P05412 241-331 limits assumed): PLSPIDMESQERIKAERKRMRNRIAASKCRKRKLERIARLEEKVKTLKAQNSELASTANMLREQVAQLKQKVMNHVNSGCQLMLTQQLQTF
T1 sequence (P61244 other isoform, or with tags, fused parts or gaps limits assumed): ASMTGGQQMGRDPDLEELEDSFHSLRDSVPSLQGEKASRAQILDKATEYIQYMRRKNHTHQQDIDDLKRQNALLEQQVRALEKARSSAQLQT

B1: c-Myc bHLH protein (other)
chain: NDKRRTHNVLERQRRNELKRSFFALRDQIPELENNEKAPKVVILKKATAYILSIQADEHKLTSEKDLLRKRREQLKHKLEQLRNSGA
Kd [1]: 0.6 nM

B2: 4heptadFos (c-Fos with the basic region replaced by four acidic heptad repeats) (designed binder)
chain: MASMTGGQQMGRDPDLEQRAEELARENEELEKEAEELEQENAELEAETDQLEDEKSALQTEIANLLKEKEKLEFILAAHRPACKIP
notes: how the two entries divide the protein is not explained; also called aZIP 4heptadFos; aFos
binding result [2]: no binding
Kd (c-Jun (unmodified) [3]): 6 nM
Tm (c-Jun (unmodified) [4]): 61 °C

B3: 3heptad-F (designed binder)
chain: ASMTGGQQMGRDPGGGLARENEELEKEAEELEQENAELEQEVLELESRNDRLRKEVEQLERELDTLRGIFRQLPESSLVKAMGNCA
notes: also called aZIP 3heptadF (CEBP specific)
Kd [5]: 2000 nM
binding result (bZIP VBP protein): no binding
deltaG at 25 C [6]: -7.9 kcal/mol
Kd [7]: 0.04 nM
Kd [8]: 0.02 nM
Kd [9]: 0.04 nM
Tm [10]: 64 °C
deltaG at 25 C [10]: -14.2 kcal/mol
Tm [11]: 64.2 °C
deltaG at 25 C [11]: -14.7 kcal/mol
Tm [12]: 63.8 °C
deltaG at 25 C [12]: -14.3 kcal/mol
